One block for each binder: values may come before it.
Assays:
[1] = target: T1, human TLR4/MD-2 complex on the surface of transfected CHO cells (human, UniProt O00206 24-839; Q9Y6Y9 19-160); experiment: flow cytometry, mock transfected vs. TLR4/MD-2 transfected cells
T1 construct: whole, on cells; also called TLR4/MD-2 transfected CHO cells; hTLR4/MD-2 transfected CHO cells

[2] = target: T2, human TLR4 alone in transfected HEK 293 cells (human, UniProt O00206 24-839); experiment: FACS on HEK 293 cells transfected with human TLR4 alone
T2 construct: whole, on cells; also called TLR4 alone in transfected cell lysates
T2 sequence (O00206 24-839): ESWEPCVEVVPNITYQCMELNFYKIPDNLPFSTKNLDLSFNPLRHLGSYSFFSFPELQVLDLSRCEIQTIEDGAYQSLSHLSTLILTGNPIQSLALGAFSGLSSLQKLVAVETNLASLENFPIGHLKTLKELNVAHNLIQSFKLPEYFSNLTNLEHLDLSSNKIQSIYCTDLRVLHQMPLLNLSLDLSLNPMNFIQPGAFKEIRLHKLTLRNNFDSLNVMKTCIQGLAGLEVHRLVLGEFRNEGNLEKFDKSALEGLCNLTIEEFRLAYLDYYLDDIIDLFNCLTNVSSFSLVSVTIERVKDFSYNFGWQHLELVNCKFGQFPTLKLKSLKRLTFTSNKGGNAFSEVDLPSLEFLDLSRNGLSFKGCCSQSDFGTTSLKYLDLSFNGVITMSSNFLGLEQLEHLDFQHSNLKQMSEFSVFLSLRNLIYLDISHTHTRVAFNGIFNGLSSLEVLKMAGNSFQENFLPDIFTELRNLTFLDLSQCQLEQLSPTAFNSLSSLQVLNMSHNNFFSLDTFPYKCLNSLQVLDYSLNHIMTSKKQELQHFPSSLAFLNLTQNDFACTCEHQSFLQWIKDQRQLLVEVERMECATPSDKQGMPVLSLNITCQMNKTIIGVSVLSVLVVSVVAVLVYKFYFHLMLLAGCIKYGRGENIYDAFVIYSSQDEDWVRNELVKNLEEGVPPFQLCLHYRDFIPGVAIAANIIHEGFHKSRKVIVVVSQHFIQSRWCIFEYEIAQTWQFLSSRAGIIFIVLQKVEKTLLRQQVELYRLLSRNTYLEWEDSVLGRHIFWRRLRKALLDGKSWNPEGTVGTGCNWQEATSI
Procedure: (§1) FIGS. 24A-24F is a series of graphs depicting the specificity of the 7E3 monoclonal antibody for the TLR4/MD-2 complex. The specificity of the 7E3 antibody is shown by flow cytometry analysis of HEK 293 cells transiently transfected with either mock vector (FIG. 24A), human TLR4 (FIG. 24B), human TLR4 and human MD-2 (FIG. 24C), rabbit TLR4 and rabbit MD-2 (FIG. 24D), human TLR4 and rabbit MD-2 (FIG. 24E), or rabbit TLR4 and human MD-2 (FIG. 24F). Cells were incubated with the 7E3 monoclonal antibody (10 μg/ml), followed by an APC-coupled α-mouse (H+L) antibody.
(§2) HEK 293 cells were plated in 6 well plates at a density of 2.5×10⁵ cells/well in 2 ml culture medium containing 10% FBS. 16 hours post-plating, cells were transfected with 0.75 μg of the appropriate vector(s) using Fugene™ reagent (Roche) according to the manufacturer's guidelines. 48 hours post-transfection, cells were stained with the appropriate monoclonal antibody (as indicated in FIGS. 4A-4L) and an APC-coupled goat anti-mouse IgG (H+L) antibody (Molecular Probes) and analyzed using the FACScalibur in the FL-4 channel.

[3] = target: T3, human TLR4 and human MD-2 on transiently transfected HEK 293 cells (human, UniProt O00206 24-839; Q9Y6Y9 19-160); experiment: FACS on transiently transfected HEK 293 cells, 7E3 at 10 µg/ml
T3 construct: whole, on cells; also called human TLR4/MD-2 complex
T3 sequence (O00206 24-839, chain 1 of 2): as the sequence (O00206 24-839) above
T3 sequence (Q9Y6Y9 19-160, chain 2 of 2): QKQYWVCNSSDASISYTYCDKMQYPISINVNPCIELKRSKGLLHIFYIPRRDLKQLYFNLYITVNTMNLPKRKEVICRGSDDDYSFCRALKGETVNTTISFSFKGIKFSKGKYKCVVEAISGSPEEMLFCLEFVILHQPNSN
Procedure: as §1, §2

[4] = target: T1, human TLR4/MD-2 complex on the surface …; experiment: flow cytometry on TLR4/MD-2 transfected CHO cells, against an isotype matched control MAb
Text: FIG. 26 is a graph illustrating that the VH and VL nucleotide sequence of 7E3 expressed as a chimeric MAb (“chimeric 7E3”) is capable of binding specifically to the human TLR4/MD-2 complex on the surface of transfected CHO cells. Monoclonal antibody binding to TLR4/MD-2 transfected CHO cells is shown by flow cytometry using chimeric 7E3 or an isotype matched control MAb at the indicated concentrations.
(§3) Specific binding of MAb at the indicated concentration was detected using an APC-labeled goat-anti-human IgG (H+L) secondary antibody. An irrelevant isotype-matched IgG1 MAb was used as a control.

[5] = target: T2, human TLR4 alone in transfected HEK 293 …; experiment: FACS on transiently transfected HEK 293 cells, 15C1 at 10 µg/ml
Procedure: (§4) FIGS. 17A-17F are a series of graphs depicting the specificity of the 15C1 monoclonal antibody for TLR4. The specificity of the 15C1 antibody is shown by flow cytometry analysis of HEK 293 cells transiently transfected with either mock vector, i.e., empty vector (FIG. 17A), human TLR4 (FIG. 17B), human TLR4 and human MD-2 (FIG. 17C), rabbit TLR4 and rabbit MD-2 (FIG. 17D), human TLR4 and rabbit MD-2 (FIG. 17E), or rabbit TLR4 and human MD-2 (FIG. 17F). Cells were incubated with the 15C1 monoclonal antibody (10 μg/ml), followed by an APC-coupled α-mouse (H+L) antibody.
as §2

[6] = target: T3, human TLR4 and human MD-2 on …; experiment: as above
Procedure: as §4, §2

[7] = target: T1, human TLR4/MD-2 complex on the surface …; experiment: flow cytometry on TLR4/MD-2 transfected CHO cells, against an isotype matched control monoclonal antibody
Text: FIG. 19 is a graph depicting that the VH and VL nucleotide sequence of 15C1 expressed as a chimeric MAb (“chimeric 15C1”) is capable of binding specifically to the human TLR4/MD-2 complex on the surface of transfected CHO cells. MAb binding to the TLR4/MD-2 complex is shown by flow cytometry using chimeric 15C1 or an isotype matched control monoclonal antibody at the indicated concentration.
as §3

[8] = target: T3, human TLR4 and human MD-2 on …; experiment: FACS on transiently transfected HEK 293 cells
Procedure: FIGS. 4A-4L are a series of graphs depicting the specificity of the 18H10 monoclonal antibody for MD-2. The specificity of the 18H10 antibody is shown by flow cytometry analysis of HEK 293 cells transiently transfected with either human TLR4 and human MD-2 (FIG. 4A, FIG. 4E and FIG. 4I); rabbit TLR4 and rabbit MD-2 (FIG. 4B, FIG. 4F and FIG. 4J); human TLR4 and rabbit MD-2 (FIG. 4C, FIG. 4G and FIG. 4K); or rabbit TLR4 and human MD-2 (FIG. 4D, FIG. 4H and FIG. 4L). Cells were incubated with either α-FLAG™ antibody (to detect TLR4 expression); α-C-myc antibody (to detect MD-2 expression) or the 18H10 monoclonal antibody, followed by an APC-coupled α-mouse (H+L) antibody.
FIGS. 12A-12L is a series of graphs depicting the specificity of the 16G7 monoclonal antibody for TLR4. […]
as §2, with “16 hours post-plating, cells were transfected with 0.75 μg of the appropriate vector(s) using Fugene™ reagent (Roche) according to the manufacturer's guidelines.” left out

[9] = target: T1, human TLR4/MD-2 complex on the surface …; experiment: FACS of hybridoma supernatant on mock vs. TLR4/MD-2 transfected CHO cells
Procedure: Mice immunized with CHO cells expressing surface TLR4/MD-2 were monitored for specific serum titers. […] This strategy was chosen in order to minimize the response to non-specific CHO cellular antigens, while simultaneously maximizing the TLR4/MD-2-specific response. Screening by FACS of supernatants from hybridomas resulting from B cell/myeloma fusions was performed on mock transfected vs. TLR4/MD-2 transfected CHO cells.

T1 sequence (O00206 24-839, chain 1 of 2): as the sequence (O00206 24-839) above
T1 sequence (Q9Y6Y9 19-160, chain 2 of 2): as the sequence (Q9Y6Y9 19-160, chain 2 of 2) above

binding result [7]: binds
B4: chimeric 15C1 MAb (antibody, V domains shown)
VH: DVQLQESGPDLIQPSQSLSLTCTVTGYSITGGYSWHWIRQFPGNKLEWMGYIHYSGYTDFNPSLKTRISITRDTSKNQFFLQLNSVTTEDTATYYCARKDPSDGFPYWGQGTLVTVSA
VL: DIVMTQSPATLSVTPGDRVSLSCRASQSISDHLHWYQQKSHESPRLLIKYASHAISGIPSRFSGSGSGTDFTLSIKSVEPEDIGVYYCQNGHSFPLTFGAGTKLELKR
notes: also called chimerical 15C1

binding result [8]: binds
binding result [9]: binds
B5: 16G7 monoclonal antibody (antibody, IgG1, V domains shown)
VH: QVKLQESGAELMKPGASVKISCKATGYKFSDYWIEWIKQRPGHGLEWIGEILPGSGSTNYNEDFKDKATFTSDTSSNTAYMQLSSLTSEDSAVYYCAKEERAYYFGYWGQGTTVTVSS
VL: DVLMTQTPLSLPVSLGDQASISCRSSQSLENSNGNTYLNWYLQKPGQSPQLLIYRVSNRFSGVLDRFSGSGSGTDFTLKISRVEAEDLGVYFCLQVTHVPPTFGAGTKLELKR

binding result [4]: binds
B6: chimeric 18H10 MAb (antibody, V domains shown)
VH: QVQLQQSGADLVRPGALVKLSCTASGFNIKDSYIHWVKKRPEWGLEWIGWTDPENVNSIYDPRFQGKASITADTSSNTAFLQLTSLTSEDTAVYYCARGYNGVYYAMDYWGQGTTVTVSS
VL: QIVLTQSPSIMSASLGEEITLTCSASSSVIYMHWYQQKSGTSPKLLIYRTYNLASGVPSRFSGSGSGTFYSLTISSVEAEDAADYYCHQWSSFPYTFGGGTKLEIKR

More lines, now with the values behind:

B1: 7E3 monoclonal antibody (antibody, IgG1, V domains shown)
VH: QVTLKESGPGILQPSQTLSLTCSFSGFSLTTYNIGVGWIRQPSGKGLEWLAHIWWNDNIYYNTVLKSRLTFSKDTSNNQVFLKIASVDIADTATYYCIRMAEGRYDAMDYWGQGTSVTVSS
VL: AIQMTQSTSSLSASLGDRVTINCRASQDITNYLNWYQQKPDGTVRLLIYYTSKLHSGAPSRFSGRGSGTDYSLTISNLEQEDIATYFCQQGNTFPWTFGGGTKLEIKR
binding result [1]: binds
binding result [2]: no binding (tested: 10 µg/ml)
binding result [3]: binds

B2: chimeric 7E3 MAb (antibody, V domains shown)
VH: QVTLKESGPGILQPSQTLSLTCSFSGFSLTTYNIGVGWIRQPSGKGLEWLAHIWWNDNIYYNTVLKSRLTFSKDTSNNQVFLKIASVDIADTATYYCIRMAEGRYDAMDYWGQGTSVTVSS
VL: AIQMTQSTSSLSASLGDRVTINCRASQDITNYLNWYQQKPDGTVRLLIYYTSKLHSGAPSRFSGRGSGTDYSLTISNLEQEDIATYFCQQGNTFPWTFGGGTKLEIKR
binding result [4]: binds

B3: 15C1 monoclonal antibody (antibody, IgG1, V domains shown)
VH: DVQLQESGPDLIQPSQSLSLTCTVTGYSITGGYSWHWIRQFPGNKLEWMGYIHYSGYTDFNPSLKTRISITRDTSKNQFFLQLNSVTTEDTATYYCARKDPSDGFPYWGQGTLVTVSA
VL: DIVMTQSPATLSVTPGDRVSLSCRASQSISDHLHWYQQKSHESPRLLIKYASHAISGIPSRFSGSGSGTDFTLSIKSVEPEDIGVYYCQNGHSFPLTFGAGTKLELKR
notes: also called 15C1 MAb; 15C1 mouse MAb
binding result [5]: binds
binding result [6]: binds
binding result [1]: binds
